These results are taken from patent publication US20070286806A1, “Methods and Compositions for Modulating a Steroid Receptor” (Mount Sinai Hospital, priority 2004, published 2007).

Residues, ends and D or L forms follow the SMILES beside them. *: point of attachment. Cbz = O=C(OCc1ccccc1)*

Assay [1] deals with PRA and PRB protein. Nature of the assay: PR protein level by western blot of whole cell lysate after co-transfection in SHM cells. The class given is cell-based. The protocol: FIG. 5. […] (A) SHM cells were transient transfected (eighteen hours) with PRA or PRB expression vector with or without increasing doses (0.2, 0.5, 1.0 and 2.0 μg) of His-PSF vector as indicated. Whole cell lysate was analyzed by western blot with PR or His tag antibody. NS=non-specific binding. (B) SHM cells were transient transfected (eighteen hours) with PRA or PRB expression vector together with 2.0 μg His tagged PSF1-707 or truncated PSF1-662. Culture media was added with or without 60 nM MG132 (Z-Leu-Leu-Leu-a1) as indicated for another 6 hours. Whole cell lysate was analyzed by western blot with PR or His tag antibody. Gβ protein was also detected as the cell lysate loading control.
For immunoprecipitation of the endogenous PR and PSF, T47D cells cultured in 150 mm dishes were lysed in 800 μl NETN buffer containing 150 mM NaCl plus protease inhibitor cocktail. Cell lysate were then incubated with 5 μg of PR or PSF, or control mouse IgG at 4° C. overnight, followed by the addition of 30 μl of protein A/G PLUS-agarose beads (Santa Cruz) for another two hours at 4° C. Resins were washed with NETN containing 250 mM NaCl and eluted with 1×Laemmli buffer. The eluted proteins along with the whole cell extract were western blotted by PR or PSF antibody. • GST pulldown assay: GST pulldown assay was performed as previously described (20). GST and its fusion proteins were first immobilized to glutathione-Sepharose 4B affinity matrix. The matrix was then incubated at 4° C. overnight with rabbit reticulocyte lysate (Promega) containing PR or His-PSF transcribed and translated in presence of ^35S methionine. The matrix was washed three times with cold NETN buffer before adding 1 ×Laemmli buffer to elute associated proteins. The eluted proteins were separated on 10% SDS-PAGE gel. Gels were treated with Enhancer (NEN, Boston, US) dried and analyzed by autoradiography. • Cell culture and transient transfection: SHM cells and 293T cells were maintained in DMEM plus 5% FCS (Sigma) as described before (22). For experiments involving steroid exposure, the medium was substituted with phenol red free DMEM containing 5% charcoal-treated fetal bovine serum (Hyclone, Utah, USA). Transfection was performed according to manufacturers protocol (Fementas). Cells were seeded at a density to achieve 60-80% confluency the following day. The DNA and transfection reagent were mixed and added to the medium. Cell lysates were collected at least 30 hours after transfection. For luciferase assay, cells were collected in 200 μl of lysis buffer (Promega) of which 10μl was used for the luciferase and β-Gal activity assays respectively. Luciferase activity was determined by using the luciferin reagent (Promega) according to manufacture's protocol. […]
Background: Immunoblotting shows a protein as a band on a membrane.

Assay [2] concerns PR protein. Kind of assay: PR protein levels on over-expression of PSF in 293T cells. Format: cell-based. The note with it: 293T cells.
For assay [3], the target named is T1, His-PSF (6xHis-tagged full length human PSF, amino acid 1-707) (human, UniProt P23246 1-707).
T1 construct: Expressed in 293T or SHM cells (co-immunoprecipitation, reporter assays) or translated in rabbit reticulocyte lysate with ^35S methionine (GST pulldown); 1 only as 'e.g.' of wild type PSF; also called His tagged PSF; His tagged PSF1-707; not shown: N-terminal 6xHis tag of vector pcDNA3.1 6xHis
T1 sequence: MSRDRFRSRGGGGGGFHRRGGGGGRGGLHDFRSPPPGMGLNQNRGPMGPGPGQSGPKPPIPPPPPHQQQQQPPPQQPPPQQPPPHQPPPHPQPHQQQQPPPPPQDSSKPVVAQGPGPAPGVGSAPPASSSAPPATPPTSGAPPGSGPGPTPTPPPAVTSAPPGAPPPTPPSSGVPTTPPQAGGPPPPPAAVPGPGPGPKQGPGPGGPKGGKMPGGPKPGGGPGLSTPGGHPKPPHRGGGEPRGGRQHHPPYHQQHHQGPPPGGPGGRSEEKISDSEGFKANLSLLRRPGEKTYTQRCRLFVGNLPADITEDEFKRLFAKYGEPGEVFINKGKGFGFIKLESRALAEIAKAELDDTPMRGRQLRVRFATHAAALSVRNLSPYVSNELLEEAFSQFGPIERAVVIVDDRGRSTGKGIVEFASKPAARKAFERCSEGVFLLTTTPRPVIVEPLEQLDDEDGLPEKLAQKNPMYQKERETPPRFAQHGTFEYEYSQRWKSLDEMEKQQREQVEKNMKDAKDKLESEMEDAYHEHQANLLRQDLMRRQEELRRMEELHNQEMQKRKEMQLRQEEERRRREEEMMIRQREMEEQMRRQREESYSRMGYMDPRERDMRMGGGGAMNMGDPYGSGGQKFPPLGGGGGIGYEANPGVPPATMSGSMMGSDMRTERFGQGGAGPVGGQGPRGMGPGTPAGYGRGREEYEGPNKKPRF
Nature of the assay: GST pulldown of ^35S-labeled PSF, autoradiography.

With `CC(C)C[C@@H](C=O)NC(=O)[C@H](CC(C)C)NC(=O)[C@H](CC(C)C)NC(=O)OCc1ccccc1` [MG132, Z-Leu-Leu-Leu-a1, reference compound] (Cbz-Leu-Leu-Leu-aldehyde), in assay [1] (final concentration of 60 μM for an additional 6 hours), the “effect on PSF-induced loss of PR protein” value is given as “block the loss of PR protein”. In assay [2], the “effect on PSF-induced reduction of PR protein levels” value was “rescued”.

B1: PSF-1-662: truncated form of PSF, amino acids 1-662 (protein, UniProt P23246 1-662, looked up, fragment)
chain: MSRDRFRSRGGGGGGFHRRGGGGGRGGLHDFRSPPPGMGLNQNRGPMGPGPGQSGPKPPIPPPPPHQQQQQPPPQQPPPQQPPPHQPPPHPQPHQQQQPPPPPQDSSKPVVAQGPGPAPGVGSAPPASSSAPPATPPTSGAPPGSGPGPTPTPPPAVTSAPPGAPPPTPPSSGVPTTPPQAGGPPPPPAAVPGPGPGPKQGPGPGGPKGGKMPGGPKPGGGPGLSTPGGHPKPPHRGGGEPRGGRQHHPPYHQQHHQGPPPGGPGGRSEEKISDSEGFKANLSLLRRPGEKTYTQRCRLFVGNLPADITEDEFKRLFAKYGEPGEVFINKGKGFGFIKLESRALAEIAKAELDDTPMRGRQLRVRFATHAAALSVRNLSPYVSNELLEEAFSQFGPIERAVVIVDDRGRSTGKGIVEFASKPAARKAFERCSEGVFLLTTTPRPVIVEPLEQLDDEDGLPEKLAQKNPMYQKERETPPRFAQHGTFEYEYSQRWKSLDEMEKQQREQVEKNMKDAKDKLESEMEDAYHEHQANLLRQDLMRRQEELRRMEELHNQEMQKRKEMQLRQEEERRRREEEMMIRQREMEEQMRRQREESYSRMGYMDPRERDMRMGGGGAMNMGDPYGSGGQKFPPLGGGGGIGYEANPGVPPATMSGSMMGSDM
On to B1, for which the “PR proteins after co-transfection with PRB/PRA” value in assay [1] (after 24 hours) is listed as “total loss of PR proteins”.

B2: GST-PR fusion protein, amino acids 456-556 of PRB (other)
chain: STLECILYKAEGAPPQQGPFAPPPCKAPGASGCLLPRDGLPSTSASAAAAGAAPALYPALGLNGLPQLGYQAAVLKEGLPQVYPPYLNYLRPDSEASQSPQ
notes: also called other segments of PR; not shown: glutathione-S-transferase (GST) of vector pGEX 5X-2
With B2, the binding result in assay [3] is “no binding”.

B3: GST-PR fusion protein, amino acids 650-933 of PRB (other)
chain: ALDAVALPQPLGVPNESQALSQRFTFSPGQDIQLIPPLINLLMSIEPDVIYAGHDNTKPDTSSSLLTSLNQLGERQLLSVVKWSKSLPGFRNLHIDDQITLIQYSWMSLMVFGLGWRSYKHVSGQMLYFAPDLILNEQRMKESSFYSLCLTMWQIPQEFVKLQVSQEEFLCMKVLLLLNTIPLEGLRSQTQFEEMRSSYIRELIKAIGLRQKGVVSSSQRFYQLTKLLDNLHDLVKQLHLYCLNTFIQSRALSVEFPEMMSEVIAAQLPKILAGMVKPLLFHKK
notes: as for B2
For the molecule B3, the binding result in assay [3] is “no binding”.

B4: GST-PR fusion protein, amino acids 164-456 of PRB (other)
chain: LMSRSGCKVGDSSGTAAAHKVLPRGLSPARQLLLPASESPHWSGAPVKPSPQAAAVEVEEEDSSESEESAGPLLKGKPRALGGAAAGGGAAACPPGAAAGGVALVPKEDSRFSAPRVALVEQDAPMAPGRSPLATTVMDFIHVPILPLNHALLAARTRQLLEDESYDGGAGAASAFAPPRTSPCASSTPVAVGDFPDCAYPPDAEPKDDAYPLYSDFQPPALKIKEEEEGAEASARSPRSYLVAGANPAAFPDFPLGPPPPLPPRATPSRPGEAAVTAAPASASVSSASSSGS
notes: as for B2
Turning to B4, the binding result in assay [3] was “no binding”.
